Experimental data from the supplement of paper PMC9112550, “Optimization of the antimicrobial peptide Bac7 by deep mutational scanning” (BMC Biology, 2022).

Tested on: Escherichia coli TOP10
Assay: shrunken log2 fold change of peptide-encoding DNA abundance (4.5 h post-induction vs induction); higher = less antimicrobial activity (less host growth inhibition)
Details: time post-induction: 4.5 h; library: site-saturation at positions 5, 18, 19, 20
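Note: peptides expressed intracellularly from a pBAD plasmid library in pooled LB shake-flask culture, induced with 0.3% L-arabinose, DNA abundance read by NGS, three biological replicates, DESeq2 with apeglm shrinkage.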

In order of falling “shrunken log2 fold change” value:
1. RRIRVRPPRLPRPRPRPTNRPRP  3.75
2. RRIRMRPPRLPRPRPRPEQMPRP  2.44
3. RRIRLRPPRLPRPRPRPHFPPRP  2.38
4. RRIRKRPPRLPRPRPRPELTPRP  2.29
5. RRIRDRPPRLPRPRPRPKIKPRP  2.05
6. RRIRGRPPRLPRPRPRPGCAPRP  1.33
7. RRIRWRPPRLPRPRPRPLPAPRP  1.25
8. RRIRGRPPRLPRPRPRPLCEPRP  1.22
9. RRIRARPPRLPRPRPRPVPPPRP  1.05
10. RRIRMRPPRLPRPRPRPPTNPRP  0.949
11. RRIRMRPPRLPRPRPRPGFGPRP  0.904
12. RRIRRRPPRLPRPRPRPPPWPRP  0.868
13. RRIRLRPPRLPRPRPRPRPEPRP  0.799
14. RRIRVRPPRLPRPRPRPGCAPRP  0.757
15. RRIRDRPPRLPRPRPRPMIAPRP  0.732
16. RRIRRRPPRLPRPRPRPPKRPRP  0.686
17. RRIRWRPPRLPRPRPRPKRTPRP  0.668
18. RRIRVRPPRLPRPRPRPGLRPRP  0.663
19. RRIRNRPPRLPRPRPRPGPRPRP  0.641
20. RRIRGRPPRLPRPRPRPVSVPRP  0.624
21. RRIRNRPPRLPRPRPRPGARPRP  0.582
22. RRIRRRPPRLPRPRPRPWQWPRP  0.549
23. RRIRMRPPRLPRPRPRPGVCPRP  0.535
24. RRIRPRPPRLPRPRPRPPQMPRP  0.531
25. RRIRRRPPRLPRPRPRPESSPRP  0.53
26. RRIRWRPPRLPRPRPRPCMRPRP  0.506
27. RRIRKRPPRLPRPRPRPRLTPRP  0.501
28. RRIRMRPPRLPRPRPRPIDWPRP  0.483
29. RRIRCRPPRLPRPRPRPVKPPRP  0.477
30. RRIRSRPPRLPRPRPRPDPAPRP  0.45
31. RRIRKRPPRLPRPRPRPEGPPRP  0.447
32. RRIRWRPPRLPRPRPRPTTAPRP  0.432
33. RRIRGRPPRLPRPRPRPAFVPRP  0.373
34. RRIRVRPPRLPRPRPRPTVAPRP  0.37
35. RRIRPRPPRLPRPRPRPSPIPRP  0.335
36. RRIRERPPRLPRPRPRPTPHPRP  0.308
37. RRIRKRPPRLPRPRPRPISPPRP  0.305
38. RRIRSRPPRLPRPRPRPRWLPRP  0.297
39. RRIRRRPPRLPRPRPRPFFPPRP  0.263
40. RRIRPRPPRLPRPRPRPEPIPRP  0.26
41. RRIRCRPPRLPRPRPRPDWRPRP  0.243
42. RRIRRRPPRLPRPRPRPVSMPRP  0.22
43. RRIRARPPRLPRPRPRPVQMPRP  0.21
44. RRIRPRPPRLPRPRPRPGAQPRP  0.198
45. RRIRIRPPRLPRPRPRPATRPRP  0.19
46. RRIRIRPPRLPRPRPRPPDFPRP  0.189
47. RRIRGRPPRLPRPRPRPYCIPRP  0.174
48. RRIRTRPPRLPRPRPRPNEAPRP  0.172
49. RRIRARPPRLPRPRPRPGTCPRP  0.153
50. RRIRDRPPRLPRPRPRPPRLPRP  0.144
51. RRIRARPPRLPRPRPRPMKKPRP  0.143
52. RRIRLRPPRLPRPRPRPLICPRP  0.128
53. RRIRERPPRLPRPRPRPEFCPRP  0.112
54. RRIRKRPPRLPRPRPRPCCKPRP  0.099
55. RRIRVRPPRLPRPRPRPHPWPRP  0.0927
56. RRIRKRPPRLPRPRPRPPVSPRP  0.0866
57. RRIRWRPPRLPRPRPRPSYEPRP  0.086
58. RRIRVRPPRLPRPRPRPMMTPRP  0.0496
59. RRIRKRPPRLPRPRPRPQFLPRP  0.0482
60. RRIRGRPPRLPRPRPRPDFVPRP  0.0455
61. RRIRIRPPRLPRPRPRPDFWPRP  0.0448
62. RRIRIRPPRLPRPRPRPPENPRP  0.0392
63. RRIRVRPPRLPRPRPRPMTTPRP  0.0377
64. RRIRRRPPRLPRPRPRPNFLPRP  0.0376
65. RRIRIRPPRLPRPRPRPCDEPRP  0.0357
66. RRIRDRPPRLPRPRPRPGSPPRP  0.0355
67. RRIRIRPPRLPRPRPRPYQPPRP  0.0299
68. RRIRPRPPRLPRPRPRPNASPRP  0.0199
69. RRIRMRPPRLPRPRPRPHWKPRP  0.0142
70. RRIRDRPPRLPRPRPRPDGKPRP  0.00996
71. RRIRMRPPRLPRPRPRPNLDPRP  0.00884
72. RRIRNRPPRLPRPRPRPEHKPRP  0.00308
73. RRIRVRPPRLPRPRPRPDWTPRP  0.00219
74. RRIRQRPPRLPRPRPRPNADPRP  0.00101
75. RRIRDRPPRLPRPRPRPNANPRP  0.000903
76. RRIRFRPPRLPRPRPRPGNEPRP  -0.00911
77. RRIRDRPPRLPRPRPRPVQGPRP  -0.01
78. RRIRQRPPRLPRPRPRPFDKPRP  -0.0121
79. RRIRIRPPRLPRPRPRPWFQPRP  -0.0137
80. RRIRKRPPRLPRPRPRPTDCPRP  -0.0167
81. RRIRSRPPRLPRPRPRPDGSPRP  -0.0196
82. RRIRERPPRLPRPRPRPLCHPRP  -0.0201
83. RRIRPRPPRLPRPRPRPPNMPRP  -0.0209
84. RRIRIRPPRLPRPRPRPEEIPRP  -0.0261
85. RRIRIRPPRLPRPRPRPDPGPRP  -0.0404
86. RRIRDRPPRLPRPRPRPQINPRP  -0.0439
87. RRIRIRPPRLPRPRPRPWRNPRP  -0.0466
88. RRIRQRPPRLPRPRPRPLGYPRP  -0.0704
89. RRIRMRPPRLPRPRPRPHCFPRP  -0.0715
90. RRIRYRPPRLPRPRPRPRDIPRP  -0.0839
91. RRIRERPPRLPRPRPRPCQHPRP  -0.0915
92. RRIRGRPPRLPRPRPRPHTGPRP  -0.0945
93. RRIRNRPPRLPRPRPRPSTVPRP  -0.103
94. RRIRFRPPRLPRPRPRPDFYPRP  -0.105
95. RRIRQRPPRLPRPRPRPSGWPRP  -0.112
96. RRIRHRPPRLPRPRPRPGMKPRP  -0.113
97. RRIRVRPPRLPRPRPRPQFEPRP  -0.119
98. RRIRSRPPRLPRPRPRPRHQPRP  -0.119
99. RRIRQRPPRLPRPRPRPDMTPRP  -0.129
100. RRIRKRPPRLPRPRPRPWIMPRP  -0.132
101. RRIRRRPPRLPRPRPRPMWTPRP  -0.132
102. RRIRRRPPRLPRPRPRPLDLPRP  -0.158
103. RRIRERPPRLPRPRPRPWHTPRP  -0.16
104. RRIRKRPPRLPRPRPRPWHGPRP  -0.165
105. RRIRDRPPRLPRPRPRPWNTPRP  -0.166
106. RRIRTRPPRLPRPRPRPYAFPRP  -0.17
107. RRIRTRPPRLPRPRPRPEHTPRP  -0.174
108. RRIRIRPPRLPRPRPRPDFSPRP  -0.175
109. RRIRCRPPRLPRPRPRPMPYPRP  -0.189
110. RRIRKRPPRLPRPRPRPMVLPRP  -0.191
111. RRIRPRPPRLPRPRPRPHTLPRP  -0.195
112. RRIRDRPPRLPRPRPRPSYVPRP  -0.206
113. RRIRYRPPRLPRPRPRPVTGPRP  -0.213
114. RRIRQRPPRLPRPRPRPLTEPRP  -0.22
115. RRIRQRPPRLPRPRPRPQNKPRP  -0.22
116. RRIRIRPPRLPRPRPRPVLMPRP  -0.229
117. RRIRSRPPRLPRPRPRPNDLPRP  -0.23
118. RRIRPRPPRLPRPRPRPNKWPRP  -0.232
119. RRIRYRPPRLPRPRPRPQQMPRP  -0.232
120. RRIRVRPPRLPRPRPRPKGLPRP  -0.239
121. RRIRNRPPRLPRPRPRPMYHPRP  -0.248
122. RRIRQRPPRLPRPRPRPYVTPRP  -0.253
123. RRIRQRPPRLPRPRPRPTKYPRP  -0.257
124. RRIRNRPPRLPRPRPRPLKSPRP  -0.258
125. RRIRGRPPRLPRPRPRPCCNPRP  -0.265
126. RRIRNRPPRLPRPRPRPVSTPRP  -0.272
127. RRIRTRPPRLPRPRPRPKTIPRP  -0.292
128. RRIRHRPPRLPRPRPRPLKFPRP  -0.298
129. RRIRNRPPRLPRPRPRPLGKPRP  -0.299
130. RRIRNRPPRLPRPRPRPYNPPRP  -0.299
131. RRIRNRPPRLPRPRPRPWSAPRP  -0.304
132. RRIRHRPPRLPRPRPRPYNHPRP  -0.316
133. RRIRPRPPRLPRPRPRPTNNPRP  -0.329
134. RRIRIRPPRLPRPRPRPFPPPRP  -0.353
135. RRIRQRPPRLPRPRPRPCLSPRP  -0.383
136. RRIRYRPPRLPRPRPRPTTAPRP  -0.415
137. RRIRFRPPRLPRPRPRPLFVPRP  -0.424
138. RRIRERPPRLPRPRPRPWSKPRP  -0.466
139. RRIRVRPPRLPRPRPRPIKHPRP  -0.505
140. RRIRDRPPRLPRPRPRPIHDPRP  -0.58
141. RRIRMRPPRLPRPRPRPYVPPRP  -0.584
142. RRIRFRPPRLPRPRPRPKMIPRP  -0.618
143. RRIRIRPPRLPRPRPRPNIDPRP  -0.619
144. RRIRDRPPRLPRPRPRPNIPPRP  -0.623
145. RRIRVRPPRLPRPRPRPSNNPRP  -0.662
146. RRIRFRPPRLPRPRPRPTNMPRP  -0.712
147. RRIRHRPPRLPRPRPRPKKYPRP  -0.806
148. RRIRLRPPRLPRPRPRPNRNPRP  -0.884
149. RRIRARPPRLPRPRPRPYWDPRP  -0.964
150. RRIRHRPPRLPRPRPRPNVQPRP  -1.87
